Reference: patent publication US12202907B2, “Nucleic acids encoding and methods of producing proteins comprising antibody chains” (Innate Pharma, priority 2018, dated 2025)

What was measured:
[1] = target: T1, Human CD39-L3 (NTPDase3, ENTPD3) (Homo sapiens, UniProt O75355); experiment: ELISA titration on CD39-L3; format: binding
T1 sequence (O75355 1-529): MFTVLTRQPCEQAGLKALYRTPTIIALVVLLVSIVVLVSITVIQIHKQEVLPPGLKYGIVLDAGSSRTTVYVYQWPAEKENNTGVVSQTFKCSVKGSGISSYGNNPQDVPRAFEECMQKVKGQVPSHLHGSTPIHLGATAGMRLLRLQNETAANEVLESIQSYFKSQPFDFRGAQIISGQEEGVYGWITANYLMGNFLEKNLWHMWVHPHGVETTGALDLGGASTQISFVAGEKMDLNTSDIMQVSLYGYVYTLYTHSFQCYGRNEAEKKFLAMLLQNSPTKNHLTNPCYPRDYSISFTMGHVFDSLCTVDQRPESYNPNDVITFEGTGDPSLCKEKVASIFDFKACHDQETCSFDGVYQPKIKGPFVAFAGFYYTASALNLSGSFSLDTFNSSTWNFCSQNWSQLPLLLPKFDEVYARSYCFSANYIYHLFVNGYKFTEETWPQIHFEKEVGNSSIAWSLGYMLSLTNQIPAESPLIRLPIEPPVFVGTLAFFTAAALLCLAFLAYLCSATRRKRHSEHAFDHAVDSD
Method: Antibody I-394 was tested for binding to recombinant human CD39 isoforms (Rec-huCD39 isoforms) having amino acid sequences shown below were coated in 96-well plate in PBS 1X at 500 ng/ml or 1 μg/ml at 4° C. overnight. Wells were washed in TBS Tween® 20 (polysorbate 20), and further saturated 2H at RT in TBS Blocking buffer. Dose range concentration of primary antibody was incubated in TBS blocking buffer for 2 h at RT. Wells were washed in TBS Tween® 20 (polysorbate 20). […] Optical density was measured on Enspire™ at OD=450.

[2] = tested on: cynomolgus CD39 expressing CHO cells (CHO-cyCD39); experiment: Inhibition of the enzymatic activity of cellular CD39 in CHO-cyCD39; format: cell-based, cynomolgus (Macaca fascicularis); settings: qualitative
Method: (§1) The inhibition of the CD39 enzymatic activity in CD39-expressing cells by antibodies was evaluated using Cell Titer GIo™ (Promega, reference G7571) that allows assessment of ATP hydrolysis through use of a reagent that generates a luminescent signal proportional to the amount of ATP present. The assay was thus designed to permit assessment of the inhibition of ATP hydrolyzed by CD39 in the cell culture supernatant. Briefly, 5×10^4 Ramos human lymphoma cells, 5×10^3 human CD39−, cynomolgus CD39—and mouse CD39− expressing CHO cells, were incubated 1 hour at 37° C. with anti-CD39 antibodies from 30 μg/ml to 5×10^−4 μg/ml. Cells were then incubated with 20 μM ATP for 1 additional hour at 37° C. Plates were centrifuged for 2 min at 400 g and 50 μl cell supernatant are transferred in a luminescence microplate (white wells). 50 μl CellTiter-Glo™ Reagent (CTG) was added to the supernatant and emitted light was quantified after a 5 min incubation in the dark using a Enspire™ luminometer. Anti-CD39 antibody efficacy was determined by comparing emitted light in presence of antibody with ATP alone (maximal light emission) and ATP together with cells (minimal light emission).

[3] = target: T2, human CD39 expressing CHO cells (CHO-huCD39) (Homo sapiens, UniProt P49961); experiment: Inhibition of the enzymatic activity of cellular CD39 in CHO-huCD39; format: cell-based; settings: qualitative
T2 construct: expressed in transfected cells; host or cells: CHO
T2 sequence (P49961 1-510): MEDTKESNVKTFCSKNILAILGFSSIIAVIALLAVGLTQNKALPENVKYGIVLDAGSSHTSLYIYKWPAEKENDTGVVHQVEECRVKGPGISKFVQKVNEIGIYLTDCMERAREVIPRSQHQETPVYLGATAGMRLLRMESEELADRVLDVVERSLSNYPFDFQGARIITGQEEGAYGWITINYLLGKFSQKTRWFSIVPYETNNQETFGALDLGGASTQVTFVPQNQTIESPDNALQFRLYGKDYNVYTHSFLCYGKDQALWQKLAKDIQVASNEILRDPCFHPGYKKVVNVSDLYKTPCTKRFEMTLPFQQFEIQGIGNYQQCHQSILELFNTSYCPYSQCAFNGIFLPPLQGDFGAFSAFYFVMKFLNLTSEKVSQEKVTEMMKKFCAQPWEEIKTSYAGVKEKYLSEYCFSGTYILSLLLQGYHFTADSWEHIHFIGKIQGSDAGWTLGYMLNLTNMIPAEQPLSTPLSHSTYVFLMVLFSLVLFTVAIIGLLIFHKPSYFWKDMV
Method: as §1

## I-394: anti-CD39 antibody, VH SEQ ID NO: 6, VL SEQ ID NO: 7, human IgG1 Fc with L234A/L235E/G237A/A330S/P331S
[1]
  binding to CD39-L3 in ELISA: not to any of the isoforms CD39-L1, -L2, -L3 or -L4
[2]
  blocking CD39 enzymatic activity in CHO-cyCD39: blocks CD39 enzymatic activity
[3]
  blocking CD39 enzymatic activity in CHO-huCD39: blocks CD39 enzymatic activity
